Source: patent US20250154277A1 (CONCEPT TO MEDICINE BIOTECH, published 2025)
Where a chain is given by its changes, count along the chain named. Where two headings read alike, the source gives them in different places. Values belong to the binder of their own block, whether it stands above or below them.

Columns and labels:
human 5T4-His protein [1] = molecular target: T1, human 5T4-His protein (human, UniProt Q13641 32-355); assay: ELISA, coated 5T4-His
T1 construct: also called recombinant 5T4 protein (human 5T4-his tag); human 5T4 protein; not shown: His tag
T1 sequence (looked up): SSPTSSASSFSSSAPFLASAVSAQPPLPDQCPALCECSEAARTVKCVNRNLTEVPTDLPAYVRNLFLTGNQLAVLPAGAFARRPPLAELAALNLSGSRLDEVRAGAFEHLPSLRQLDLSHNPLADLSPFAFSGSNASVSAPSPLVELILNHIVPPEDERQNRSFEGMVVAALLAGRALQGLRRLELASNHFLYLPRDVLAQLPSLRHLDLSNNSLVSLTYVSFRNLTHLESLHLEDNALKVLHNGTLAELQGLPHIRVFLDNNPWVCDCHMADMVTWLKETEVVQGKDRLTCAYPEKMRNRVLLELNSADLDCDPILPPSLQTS
Experimental: To evaluate the binding activity of clones, the 286B4 chimeric antibody along with 286B4 humanized mAbs were subjected to ELISA test.
(§1) Briefly, microtiter plates were coated with human 5T4-His protein at 1 μg/ml in PBS, 100 μl/well at 4° C. overnight, then blocked with 150 μl/well of 1% BSA. 4-fold dilutions of tested antibodies starting from 20 nM were added to each well and incubated for 1 hour at 37° C. The plates were washed with PBS/Tween and then incubated with Goat Anti-Human IgG-HRP for 30 mins at 37° C. After washing, the plates were developed with TMB substrate and analyzed by spectrophotometer at OD 450 nm. As shown in FIG. 16 and Table 15, most of the humanized clones bound to human 5T4 with high potency.

human 5T4-His protein [2] = molecular target: T1, human 5T4-His protein; assay: ELISA, coated 5T4-His; remark: listed apart in the source
Experimental: To evaluate the binding activity of 393E9 humanized antibodies to human 5T4, the 393E9 chimeric antibody (393E9-C) along with 393E9 humanized mAbs were subjected to ELISA test.
as §1, with “of” for “of tested”, “12” for “16”, “9,” for “15,”, “antibodies” for “clones”, “activity.” for “potency.”

human 5T4-His protein [3] = molecular target: T1, human 5T4-His protein; assay: SPR Biacore, Protein A capture
Experimental: The binding of the 393E9 humanized antibodies to recombinant 5T4 protein (human 5T4-his tag) was tested with Biacore using a capture method. The mAbs were captured using Protein A chip. A serial dilution of human 5T4-his tag protein was injected over captured antibody for 3 mins at a flow rate of 30 μl/min. The antigen was allowed to dissociate for 280-800 s. All the experiments were carried out on a Biacore T200. Data analysis was carried out using the Biacore T200 evaluation software.

B1: Hu286B4-1 (antibody, V domains shown)
VH: EVQLQESGPGLVKPSDTLSLTCAVSGYSISNNYYWNWIRQPPGKGLEWIGYITYDGSNNYNPSLKNRVTMSRDTSKNQFSLKLSSVTAVDTAVYYCARGGGQLRFDYWGQGTTVTVSS
VL: DIQMTQSPSSLSASVGDRVTITCKASQSVSNEVTWYQQKPGKAPKLLIYYASNRYTGVPDRFSGSGSGTDFTFTISSLQPEDIATYYCQQDYSSPWTFGGGTKVEIK
notes: humanized
EC50 (human 5T4-His protein [1]): 3.81 nM

B2: Hu286B4-11 (antibody, V domains shown)
VH: B1 VH with I49M, V68I, M70V
VL: B1 VL
notes: humanized
EC50 (human 5T4-His protein [1]): 1.42 nM

B3: Hu286B4-7 (antibody, V domains shown)
VH: B1 VH with V68I
VL: B1 VL with L46M
notes: humanized
EC50 (human 5T4-His protein [1]): 1.76 nM

B4: Hu286B4-4 (antibody, V domains shown)
VH: B1 VH
VL: B1 VL with A43S, L46M, S67Y, Y87F
notes: humanized
EC50 (human 5T4-His protein [1]): 0.46 nM

B5: Hu286B4-2 (antibody, V domains shown)
VH: B1 VH
VL: B1 VL with L46M
notes: humanized
EC50 (human 5T4-His protein [1]): 1.35 nM

B6: Hu286B4-6 (antibody, V domains shown)
VH: B1 VH with V68I
VL: B1 VL
notes: humanized
EC50 (human 5T4-His protein [1]): 2.64 nM

B7: Hu286B4-12 (antibody, V domains shown)
VH: B1 VH with I49M, V68I, M70V
VL: B1 VL with L46M
notes: humanized
EC50 (human 5T4-His protein [1]): 0.89 nM

B8: Hu286B4-9 (antibody, V domains shown)
VH: B1 VH with V68I
VL: B1 VL with A43S, L46M, S67Y, Y87F
notes: humanized
EC50 (human 5T4-His protein [1]): 0.33 nM

B9: 393E9_hVH2_hVL1 (antibody, V domains shown)
VH: EVQLVESGGGLIQPGGSLRLSCAASGFTFTDYYMSWVRQPPGKGLEWVGFIRNKGNGYTTENSASVKGRFTISRDNSKSTLYLQMNSLRAEDTAVYYCARYRGNPHYAMDYWGQGTLVTVSS
VL: DIVLTQSPDSLAVSLGERATINCRASESVEFYGTSFLQWYQQKPGQPPKLLIYGASNVESGVPDRFSGSGSGTDFTLTISSLQAEDIAVYFCQQSRKVPSTFGGGTKVEIK
notes: humanized
EC50 (human 5T4-His protein [2]): 0.17 nM
Kd (human 5T4-His protein [3]): 0.547 nM
koff (human 5T4-His protein [3]): 0.000104 s⁻¹
kon (human 5T4-His protein [3]): 190000 M⁻¹ s⁻¹

B10: 393E9_hVH1_hVL4 (antibody, V domains shown)
VH: B9 VH with I12V, P40A
VL: DIVLTQSPLSLPVTPGEPASISCRASESVEFYGTSFLQWYLQKPGQSPQLLIYGASNVESGVPDRFSGSGSGTDFTLKISRVEAEDIGVYFCQQSRKVPSTFGGGTKVEIK
notes: humanized
EC50 (human 5T4-His protein [2]): 0.13 nM
Kd (human 5T4-His protein [3]): 0.599 nM
koff (human 5T4-His protein [3]): 0.000119 s⁻¹
kon (human 5T4-His protein [3]): 199000 M⁻¹ s⁻¹

B14: 393E9_hVH4_hVL5 (antibody, V domains shown)
VH: B9 VH with I12V, P40A, T80S, R89K, A90T
VL: EIVLTQSPGTLSLSPGERATLSCRASESVEFYGTSFLQWYQQKPGQAPRLLIYGASNVESGIPDRFSGSGSGTDFTLTISRLEPEDIAVYFCQQSRKVPSTFGGGTKVEIK
notes: humanized; also called Hu393E9-45
EC50 (human 5T4-His protein [2]): 0.22 nM
Kd (human 5T4-His protein [3]): 0.595 nM
koff (human 5T4-His protein [3]): 0.000129 s⁻¹
kon (human 5T4-His protein [3]): 217000 M⁻¹ s⁻¹

B25: 393E9_hVH5_hVL4 (antibody, V domains shown)
VH: B9 VH with I12V, G16R, A23T, P40A, T80I, R89K, A90T
VL: B10 VL
notes: humanized
EC50 (human 5T4-His protein [2]): 0.17 nM
Kd (human 5T4-His protein [3]): 0.679 nM
koff (human 5T4-His protein [3]): 0.000125 s⁻¹
kon (human 5T4-His protein [3]): 184000 M⁻¹ s⁻¹

B26: 393E9_hVH6_hVL5 (antibody, V domains shown)
VH: B9 VH with I12V, P40A, S77A, T80S
VL: B14 VL
notes: humanized
EC50 (human 5T4-His protein [2]): 0.19 nM
Kd (human 5T4-His protein [3]): 0.574 nM
koff (human 5T4-His protein [3]): 0.000122 s⁻¹
kon (human 5T4-His protein [3]): 212000 M⁻¹ s⁻¹

Further binders by falling EC50 (human 5T4-His protein [2]), results first:

EC50 (human 5T4-His protein [2]): 0.16 nM
Kd (human 5T4-His protein [3]): 0.506 nM
koff (human 5T4-His protein [3]): 0.000108 s⁻¹
kon (human 5T4-His protein [3]): 213000 M⁻¹ s⁻¹
B11: 393E9_hVH3_hVL1 (antibody, V domains shown)
VH: B9 VH with E1Q, L11V, I12V, P40A
VL: B9 VL
notes: humanized

EC50 (human 5T4-His protein [2]): 0.14 nM
Kd (human 5T4-His protein [3]): 0.574 nM
koff (human 5T4-His protein [3]): 0.000111 s⁻¹
kon (human 5T4-His protein [3]): 193000 M⁻¹ s⁻¹
B23: 393E9_hVH3_hVL3 (antibody, V domains shown)
VH: B9 VH with E1Q, L11V, I12V, P40A
VL: DIQLTQSPSSLSASVGDRVTITCRASESVEFYGTSFLQWYQQKPGKAPKLLIYGASNVESGVPSRFSGSGSGTDFTLTISSLQPEDIATYFCQQSRKVPSTFGGGTKVEIK
notes: humanized

EC50 (human 5T4-His protein [2]): 0.13 nM
Kd (human 5T4-His protein [3]): 0.515 nM
koff (human 5T4-His protein [3]): 0.000112 s⁻¹
kon (human 5T4-His protein [3]): 217000 M⁻¹ s⁻¹
B16: 393E9_hVH1_hVL5 (antibody, V domains shown)
VH: B9 VH with I12V, P40A
VL: B14 VL
notes: humanized

EC50 (human 5T4-His protein [2]): 0.13 nM
Kd (human 5T4-His protein [3]): 0.706 nM
koff (human 5T4-His protein [3]): 0.000128 s⁻¹
kon (human 5T4-His protein [3]): 181000 M⁻¹ s⁻¹
B22: 393E9_hVH4_hVL3 (antibody, V domains shown)
VH: B9 VH with I12V, P40A, T80S, R89K, A90T
VL: B23 VL
notes: humanized

EC50 (human 5T4-His protein [2]): 0.12 nM
Kd (human 5T4-His protein [3]): 0.594 nM
koff (human 5T4-His protein [3]): 0.00012 s⁻¹
kon (human 5T4-His protein [3]): 201000 M⁻¹ s⁻¹
B17: 393E9_hVH2_hVL2 (antibody, V domains shown)
VH: B9 VH
VL: B14 VL with G9A, L13V, D64A, D74E, R81S, E83Q, P84S
notes: humanized

EC50 (human 5T4-His protein [2]): 0.12 nM
Kd (human 5T4-His protein [3]): 0.502 nM
koff (human 5T4-His protein [3]): 0.00012 s⁻¹
kon (human 5T4-His protein [3]): 238000 M⁻¹ s⁻¹
B18: 393E9_hVH3_hVL5 (antibody, V domains shown)
VH: B9 VH with E1Q, L11V, I12V, P40A
VL: B14 VL
notes: humanized

EC50 (human 5T4-His protein [2]): 0.12 nM
Kd (human 5T4-His protein [3]): 0.603 nM
koff (human 5T4-His protein [3]): 0.000123 s⁻¹
kon (human 5T4-His protein [3]): 204000 M⁻¹ s⁻¹
B21: 393E9_hVH4_hVL2 (antibody, V domains shown)
VH: B9 VH with I12V, P40A, T80S, R89K, A90T
VL: B14 VL with G9A, L13V, D64A, D74E, R81S, E83Q, P84S
notes: humanized

EC50 (human 5T4-His protein [2]): 0.12 nM
Kd (human 5T4-His protein [3]): 0.7 nM
koff (human 5T4-His protein [3]): 0.000119 s⁻¹
kon (human 5T4-His protein [3]): 170000 M⁻¹ s⁻¹
B24: 393E9_hVH5_hVL3 (antibody, V domains shown)
VH: B9 VH with I12V, G16R, A23T, P40A, T80I, R89K, A90T
VL: B23 VL
notes: humanized; also called Hu393E9-53

EC50 (human 5T4-His protein [2]): 0.12 nM
Kd (human 5T4-His protein [3]): 0.65 nM
koff (human 5T4-His protein [3]): 0.000127 s⁻¹
kon (human 5T4-His protein [3]): 195000 M⁻¹ s⁻¹
B28: 393E9_hVH2_hVL4 (antibody, V domains shown)
VH: B9 VH
VL: B10 VL
notes: humanized

EC50 (human 5T4-His protein [2]): 0.11 nM
Kd (human 5T4-His protein [3]): 0.598 nM
koff (human 5T4-His protein [3]): 0.000121 s⁻¹
kon (human 5T4-His protein [3]): 202000 M⁻¹ s⁻¹
B13: 393E9_hVH5_hVL5 (antibody, V domains shown)
VH: B9 VH with I12V, G16R, A23T, P40A, T80I, R89K, A90T
VL: B14 VL
notes: humanized

EC50 (human 5T4-His protein [2]): 0.11 nM
Kd (human 5T4-His protein [3]): 0.56 nM
koff (human 5T4-His protein [3]): 0.000122 s⁻¹
kon (human 5T4-His protein [3]): 217000 M⁻¹ s⁻¹
B15: 393E9_hVH2_hVL5 (antibody, V domains shown)
VH: B9 VH
VL: B14 VL
notes: humanized

EC50 (human 5T4-His protein [2]): 0.11 nM
Kd (human 5T4-His protein [3]): 0.687 nM
koff (human 5T4-His protein [3]): 0.000137 s⁻¹
kon (human 5T4-His protein [3]): 199000 M⁻¹ s⁻¹
B19: 393E9_hVH6_hVL2 (antibody, V domains shown)
VH: B9 VH with I12V, P40A, S77A, T80S
VL: B14 VL with G9A, L13V, D64A, D74E, R81S, E83Q, P84S
notes: humanized; also called Hu393E9-62

EC50 (human 5T4-His protein [2]): 0.11 nM
Kd (human 5T4-His protein [3]): 0.684 nM
koff (human 5T4-His protein [3]): 0.00012 s⁻¹
kon (human 5T4-His protein [3]): 174000 M⁻¹ s⁻¹
B27: 393E9_hVH2_hVL3 (antibody, V domains shown)
VH: B9 VH
VL: B23 VL
notes: humanized

EC50 (human 5T4-His protein [2]): 0.095 nM
Kd (human 5T4-His protein [3]): 0.573 nM
koff (human 5T4-His protein [3]): 0.000123 s⁻¹
kon (human 5T4-His protein [3]): 215000 M⁻¹ s⁻¹
B12: 393E9_hVH3_hVL4 (antibody, V domains shown)
VH: B9 VH with E1Q, L11V, I12V, P40A
VL: B10 VL
notes: humanized

EC50 (human 5T4-His protein [2]): 0.052 nM
Kd (human 5T4-His protein [3]): 0.691 nM
koff (human 5T4-His protein [3]): 0.000124 s⁻¹
kon (human 5T4-His protein [3]): 179000 M⁻¹ s⁻¹
B20: 393E9_hVH6_hVL3 (antibody, V domains shown)
VH: B9 VH with I12V, P40A, S77A, T80S
VL: B23 VL
notes: humanized
